Measurements published in patent US20150017095A1 (AbbVie / Abbott, published 2015).

How the values were obtained:
Recombinant Human VEGF [1] = molecular target: T1, Recombinant Human VEGF (human, UniProt P15692-4 27-191); experiment: BIACORE SPR, DVD-Ig captured, antigen in flow (C-terminal VD)
T1 construct: also called VEGF165
Description: (§1) The BIACORE assay (Biacore, Inc, Piscataway, N.J.) determines the affinity of antibodies or DVD-Ig with kinetic measurements of on-rate and off-rate constants. […] All chemicals are obtained from Biacore® AB (Uppsala, Sweden) or otherwise from a different source as described in the text. For example, approximately 5000 RU of goat anti-mouse IgG, (Fcγ), fragment specific polyclonal antibody (Pierce Biotechnology Inc, Rockford, Ill.) diluted in 10 mM sodium acetate (pH 4.5) is directly immobilized across a CM5 research grade biosensor chip using a standard amine coupling kit according to manufacturer's instructions and procedures at 25 μg/ml. Unreacted moieties on the biosensor surface are blocked with ethanolamine. Modified carboxymethyl dextran surface in flowcell 2 and 4 is used as a reaction surface. Unmodified carboxymethyl dextran without goat anti-mouse IgG in flow cell 1 and 3 is used as the reference surface. For kinetic analysis, rate equations derived from the 1:1 Langmuir binding model are fitted simultaneously to association and dissociation phases of all eight injections (using global fit analysis) with the use of Biaevaluation 4.0.1 software. Purified antibodies or DVD-Ig are diluted in HEPES-buffered saline for capture across goat anti-mouse IgG specific reaction surfaces. Antibodies or DVD-Ig to be captured as a ligand (25 μg/m) are injected over reaction matrices at a flow rate of 5 μl/min. The association and dissociation rate constants, kₒₙ (M⁻¹s⁻¹) and koff (s⁻¹) are determined under a continuous flow rate of 25 μl/min. Rate constants are derived by making kinetic binding measurements at different antigen concentrations ranging from 10-200 nM. The equilibrium dissociation constant (M) of the reaction between antibodies or DVD-Igs and the target antigen is then calculated from the kinetic rate constants by the following formula: KD=koff/kₒₙ. Binding is recorded as a function of time and kinetic rate constants are calculated.

Recombinant Human VEGF [2] = molecular target: T1, Recombinant Human VEGF; experiment: direct bind ELISA, antigen coated on plate (C-terminal VD)
Description: (§2) Enzyme Linked Immunosorbent Assays to screen for antibodies that bind a desired target antigen were performed as follows. High bind ELISA plates (Corning Costar #3369, Acton, Mass.) were coated with 100 μL/well of 10 μg/ml of desired target antigen (R&D Systems, Minneapolis, Minn.) or desired target antigen extra-cellular domain/FC fusion protein (R&D Systems, Minneapolis, Minn.) or monoclonal mouse anti-polyHistidine antibody (R&D Systems # MAB050, Minneapolis, Minn.) in phosphate buffered saline (10×PBS, Abbott Bioresearch Center, Media Prep# MPS-073, Worcester, Mass.) overnight at 4° C. Plates were washed four times with PBS containing 0.02% Tween 20. Plates were blocked by the addition of 300 μL/well blocking solution (non-fat dry milk powder, various retail suppliers, diluted to 2% in PBS) for ½ hour at room temperature. Plates were washed four times after blocking with PBS containing 0.02% Tween 20.
(§3) Plates were washed 4 times with PBS containing 0.02% Tween 20.
(§4) One hundred microliters of enhanced TMB solution (Neogen Corp. #308177, K Blue, Lexington, Ky.) was added to each well and incubated for 10 minutes at room temperature. The reaction was stopped by the addition of 50 μL 1N sulphuric acid.

Recombinant Human VEGF [3] = molecular target: T1, Recombinant Human VEGF; experiment: BIACORE SPR, DVD-Ig captured, antigen in flow (N-terminal VD)
Description: as §1

Recombinant Human VEGF [4] = molecular target: T1, Recombinant Human VEGF; experiment: direct bind ELISA, antigen coated on plate (N-terminal VD)
Description: as §2, §3, §4

Recombinant Human β-NGF [5] = molecular target: T2, Recombinant Human β-NGF (human, UniProt P01138 122-239, limits assumed); experiment: BIACORE SPR, DVD-Ig captured, antigen in flow (N-terminal VD)
Description: as §1

Recombinant Human β-NGF [6] = molecular target: T2, Recombinant Human β-NGF; experiment: direct bind ELISA, antigen coated on plate (N-terminal VD)
Description: as §2, §3, §4

Recombinant Human IL-1β [7] = molecular target: T3, Recombinant Human IL-1β (human, UniProt P01584 117-269); experiment: cell-based or functional assay
Recombinant Human IL-1β [8] = molecular target: T3, Recombinant Human IL-1β; experiment: BIACORE SPR, DVD-Ig captured, antigen in flow (N-terminal VD)
Description: as §1

Recombinant Human IL-1β [9] = molecular target: T3, Recombinant Human IL-1β; experiment: direct bind ELISA, antigen coated on plate (N-terminal VD)
Description: as §2, §3, §4

T2 sequence (P01138 122-239 limits assumed): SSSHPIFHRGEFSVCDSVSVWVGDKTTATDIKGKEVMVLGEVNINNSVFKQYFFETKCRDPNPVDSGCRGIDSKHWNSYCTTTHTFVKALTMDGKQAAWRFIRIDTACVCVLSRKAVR
T1 sequence (P15692 other isoform, or with tags, fused parts or gaps limits assumed): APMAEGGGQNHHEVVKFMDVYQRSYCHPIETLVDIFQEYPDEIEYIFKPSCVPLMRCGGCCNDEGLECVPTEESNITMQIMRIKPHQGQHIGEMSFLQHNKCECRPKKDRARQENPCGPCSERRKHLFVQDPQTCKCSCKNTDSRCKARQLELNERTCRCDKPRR

B1: DVD161 (PGE2 / VEGF DVD-Ig) (bispecific antibody)
VH: EVQLVQSGAEVKKPGASVKVSCKASGYTFTKYWLGWVRQAPGQGLEWMGDIYPGYDYTHYNEKFKDRVTLTTDTSTSTAYMELRSLRSDDTAVYYCARSDGSSTYWGQGTLVTVSSASTKGPEVQLVESGGGLVQPGGSLRLSCAASGYTFTNYGMNWVRQAPGKGLEWVGWINTYTGEPTYAADFKRRFTFSLDTSKSTAYLQMNSLRAEDTAVYYCAKYPHYYGSSHWYFDVWGQGTLVTVSS
VL: DVLMTQTPLSLPVTPGEPASISCTSSQNIVHSNGNTYLEWYLQKPGQSPQLLIYKVSNRFSGVPDRFSGSGSGTDFTLKISRVEAEDVGVYYCFQVSHVPYTFGGGTKVEIKRTVAAPDIQMTQSPSSLSASVGDRVTITCSASQDISNYLNWYQQKPGKAPKVLIYFTSSLHSGVPSRFSGSGSGTDFTLTISSLQPEDFATYYCQQYSTVPWTFGQGTKVEIKR
notes: Outer domain is AB048 (PGE2), inner domain is AB014 (VEGF); also called VD161H; VD161L
Kd (Recombinant Human VEGF [1]): 0.755 nM | koff (Recombinant Human VEGF [1]): 0.000209 s⁻¹ | kon (Recombinant Human VEGF [1]): 277000 M⁻¹ s⁻¹ | EC50 (Recombinant Human VEGF [2]): 391 nM

B2: DVD162 (VEGF / PGE2 DVD-Ig) (bispecific antibody)
VH: EVQLVESGGGLVQPGGSLRLSCAASGYTFTNYGMNWVRQAPGKGLEWVGWINTYTGEPTYAADFKRRFTFSLDTSKSTAYLQMNSLRAEDTAVYYCAKYPHYYGSSHWYFDVWGQGTLVTVSSASTKGPEVQLVQSGAEVKKPGASVKVSCKASGYTFTKYWLGWVRQAPGQGLEWMGDIYPGYDYTHYNEKFKDRVTLTTDTSTSTAYMELRSLRSDDTAVYYCARSDGSSTYWGQGTLVTVSS
VL: DIQMTQSPSSLSASVGDRVTITCSASQDISNYLNWYQQKPGKAPKVLIYFTSSLHSGVPSRFSGSGSGTDFTLTISSLQPEDFATYYCQQYSTVPWTFGQGTKVEIKRTVAAPDVLMTQTPLSLPVTPGEPASISCTSSQNIVHSNGNTYLEWYLQKPGQSPQLLIYKVSNRFSGVPDRFSGSGSGTDFTLKISRVEAEDVGVYYCFQVSHVPYTFGGGTKVEIKR
notes: Outer domain is AB014 (VEGF), inner domain is AB048 (PGE2); also called VD162H; VD162L
Kd (Recombinant Human VEGF [3]): 0.266 nM | koff (Recombinant Human VEGF [3]): 0.000131 s⁻¹ | kon (Recombinant Human VEGF [3]): 490000 M⁻¹ s⁻¹ | EC50 (Recombinant Human VEGF [4]): 1.79 nM

B3: DVD164 (NGF / PGE2 DVD-Ig) (bispecific antibody)
VH: QVQLQESGPGLVKPSETLSLTCTVSGFSLIGYDLNWIRQPPGKGLEWIGIIWGDGTTDYNSAVKSRVTISKDTSKNQFSLKLSSVTAADTAVYYCARGGYWYATSYYFDYWGQGTLVTVSSASTKGPEVQLVQSGAEVKKPGASVKVSCKASGYTFTKYWLGWVRQAPGQGLEWMGDIYPGYDYTHYNEKFKDRVTLTTDTSTSTAYMELRSLRSDDTAVYYCARSDGSSTYWGQGTLVTVSS
VL: DIQMTQSPSSLSASVGDRVTITCRASQSISNNLNWYQQKPGKAPKLLIYYTSRFHSGVPSRFSGSGSGTDFTFTISSLQPEDIATYYCQQEHTLPYTFGQGTKLEIKRTVAAPDVLMTQTPLSLPVTPGEPASISCTSSQNIVHSNGNTYLEWYLQKPGQSPQLLIYKVSNRFSGVPDRFSGSGSGTDFTLKISRVEAEDVGVYYCFQVSHVPYTFGGGTKVEIKR
notes: Outer domain is AB020 (NGF), inner domain is AB048 (PGE2); also called VD164H; VD164L
Kd (Recombinant Human β-NGF [5]): 0.248 nM | koff (Recombinant Human β-NGF [5]): 0.000103 s⁻¹ | kon (Recombinant Human β-NGF [5]): 414000 M⁻¹ s⁻¹ | EC50 (Recombinant Human β-NGF [6]): 1.21 nM

B4: DVD158 (IL-1b / PGE2 DVD-Ig) (bispecific antibody)
VH: QVQLVESGGGVVQPGRSLRLSCAASGFTFSVYGMNWVRQAPGKGLEWVAIIWYDGDNQYYADSVKGRFTISRDNSKNTLYLQMNGLRAEDTAVYYCARDLRTGPFDYWGQGTLVTVSSASTKGPEVQLVQSGAEVKKPGASVKVSCKASGYTFTKYWLGWVRQAPGQGLEWMGDIYPGYDYTHYNEKFKDRVTLTTDTSTSTAYMELRSLRSDDTAVYYCARSDGSSTYWGQGTLVTVSS
VL: EIVLTQSPDFQSVTPKEKVTITCRASQSIGSSLHWYQQKPDQSPKLLIKYASQSFSGVPSRFSGSGSGTDFTLTINSLEAEDAAAYYCHQSSSLPFTFGPGTKVDIKRTVAAPDVLMTQTPLSLPVTPGEPASISCTSSQNIVHSNGNTYLEWYLQKPGQSPQLLIYKVSNRFSGVPDRFSGSGSGTDFTLKISRVEAEDVGVYYCFQVSHVPYTFGGGTKVEIKR
notes: Outer domain is AB032 (IL-1b), inner domain is AB048 (PGE2); also called VD158H; VD158L
N-terminal VD IL-1β Neutralization Assay EC50 nM (IL-8 release by MRC5 cells) (Recombinant Human IL-1β [7]): 0.11 nM | Kd (Recombinant Human IL-1β [8]): 0.0387 nM | koff (Recombinant Human IL-1β [8]): 3.84e-05 s⁻¹ | kon (Recombinant Human IL-1β [8]): 992000 M⁻¹ s⁻¹ | EC50 (Recombinant Human IL-1β [9]): 17.6 nM
